Laboratory results published in PMC12136796.

Key:
Experiment in all cases: co-IP
mGFP-PICK1 5K-E (mouse) = mGFP-PICK1 5K-E (mouse) (UniProt Q62083)
mGFP-KIBRA ΔC2 (mouse) = mGFP-KIBRA ΔC2 (mouse) (UniProt Q5SXA9)
mCherry-PICK1 WT (mouse) = mCherry-PICK1 WT (mouse) (UniProt Q62083)
mGFP-KIBRA ΔCCL (mouse) = mGFP-KIBRA ΔCCL (mouse) (UniProt Q5SXA9)
mGFP-KIBRA ΔαBR (mouse) = mGFP-KIBRA ΔαBR (mouse) (UniProt Q5SXA9)
mCherry-KIBRA WT (mouse) = mCherry-KIBRA WT (mouse) (UniProt Q5SXA9)
mCherry-KIBRA WT (mouse), sequence (Q5SXA9 whole entry): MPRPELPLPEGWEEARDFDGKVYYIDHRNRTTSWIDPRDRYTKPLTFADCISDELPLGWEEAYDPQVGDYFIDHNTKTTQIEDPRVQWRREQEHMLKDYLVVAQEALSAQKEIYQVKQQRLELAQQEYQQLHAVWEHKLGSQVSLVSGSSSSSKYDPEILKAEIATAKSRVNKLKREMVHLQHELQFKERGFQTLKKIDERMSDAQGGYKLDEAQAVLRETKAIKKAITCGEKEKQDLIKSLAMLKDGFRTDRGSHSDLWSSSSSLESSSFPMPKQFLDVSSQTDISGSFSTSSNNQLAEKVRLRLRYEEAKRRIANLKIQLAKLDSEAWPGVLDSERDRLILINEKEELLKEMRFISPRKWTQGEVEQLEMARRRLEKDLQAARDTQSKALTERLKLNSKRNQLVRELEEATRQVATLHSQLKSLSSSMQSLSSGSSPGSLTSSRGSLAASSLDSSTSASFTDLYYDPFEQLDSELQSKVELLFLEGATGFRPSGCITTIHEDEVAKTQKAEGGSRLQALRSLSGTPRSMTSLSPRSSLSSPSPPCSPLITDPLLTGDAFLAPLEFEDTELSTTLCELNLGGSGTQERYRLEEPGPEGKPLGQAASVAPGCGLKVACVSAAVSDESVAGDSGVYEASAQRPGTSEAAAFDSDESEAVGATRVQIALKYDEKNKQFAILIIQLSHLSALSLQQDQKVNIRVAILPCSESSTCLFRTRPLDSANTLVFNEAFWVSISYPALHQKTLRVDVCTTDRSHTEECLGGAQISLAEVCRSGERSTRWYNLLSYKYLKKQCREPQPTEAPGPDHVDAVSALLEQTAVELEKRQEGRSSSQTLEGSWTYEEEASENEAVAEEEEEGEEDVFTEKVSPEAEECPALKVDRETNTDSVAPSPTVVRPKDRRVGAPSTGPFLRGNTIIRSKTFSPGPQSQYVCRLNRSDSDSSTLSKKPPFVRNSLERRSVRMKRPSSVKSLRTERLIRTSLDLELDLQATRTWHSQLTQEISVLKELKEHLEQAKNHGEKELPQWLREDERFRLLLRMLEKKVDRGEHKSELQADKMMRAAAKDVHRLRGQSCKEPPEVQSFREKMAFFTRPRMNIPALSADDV

mCherry-PICK1 WT (mouse), sequence (Q62083 whole entry): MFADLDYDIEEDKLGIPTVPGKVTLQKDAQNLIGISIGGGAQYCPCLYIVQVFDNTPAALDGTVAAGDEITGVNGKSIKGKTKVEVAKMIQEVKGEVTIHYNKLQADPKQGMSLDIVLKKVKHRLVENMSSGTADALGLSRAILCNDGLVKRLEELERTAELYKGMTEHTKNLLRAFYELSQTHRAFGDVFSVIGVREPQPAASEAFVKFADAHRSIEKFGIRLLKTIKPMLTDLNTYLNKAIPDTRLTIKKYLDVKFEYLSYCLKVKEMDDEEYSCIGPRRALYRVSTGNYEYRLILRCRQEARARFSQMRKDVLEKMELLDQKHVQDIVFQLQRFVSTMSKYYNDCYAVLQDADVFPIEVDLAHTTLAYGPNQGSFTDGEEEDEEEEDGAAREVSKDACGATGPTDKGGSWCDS
mGFP-PICK1 5K-E (mouse), sequence (Q62083 whole entry): as above
mGFP-KIBRA ΔαBR, sequence (Q5SXA9 whole entry, stated change not applied): as the sequence (Q5SXA9 whole entry) above
mGFP-KIBRA ΔC2, sequence (Q5SXA9 whole entry, stated change not applied): as the sequence (Q5SXA9 whole entry) above
mGFP-KIBRA ΔCCL, sequence (Q5SXA9 whole entry, stated change not applied): as the sequence (Q5SXA9 whole entry) above
Myc-GluA2, sequence (P19491 22-883): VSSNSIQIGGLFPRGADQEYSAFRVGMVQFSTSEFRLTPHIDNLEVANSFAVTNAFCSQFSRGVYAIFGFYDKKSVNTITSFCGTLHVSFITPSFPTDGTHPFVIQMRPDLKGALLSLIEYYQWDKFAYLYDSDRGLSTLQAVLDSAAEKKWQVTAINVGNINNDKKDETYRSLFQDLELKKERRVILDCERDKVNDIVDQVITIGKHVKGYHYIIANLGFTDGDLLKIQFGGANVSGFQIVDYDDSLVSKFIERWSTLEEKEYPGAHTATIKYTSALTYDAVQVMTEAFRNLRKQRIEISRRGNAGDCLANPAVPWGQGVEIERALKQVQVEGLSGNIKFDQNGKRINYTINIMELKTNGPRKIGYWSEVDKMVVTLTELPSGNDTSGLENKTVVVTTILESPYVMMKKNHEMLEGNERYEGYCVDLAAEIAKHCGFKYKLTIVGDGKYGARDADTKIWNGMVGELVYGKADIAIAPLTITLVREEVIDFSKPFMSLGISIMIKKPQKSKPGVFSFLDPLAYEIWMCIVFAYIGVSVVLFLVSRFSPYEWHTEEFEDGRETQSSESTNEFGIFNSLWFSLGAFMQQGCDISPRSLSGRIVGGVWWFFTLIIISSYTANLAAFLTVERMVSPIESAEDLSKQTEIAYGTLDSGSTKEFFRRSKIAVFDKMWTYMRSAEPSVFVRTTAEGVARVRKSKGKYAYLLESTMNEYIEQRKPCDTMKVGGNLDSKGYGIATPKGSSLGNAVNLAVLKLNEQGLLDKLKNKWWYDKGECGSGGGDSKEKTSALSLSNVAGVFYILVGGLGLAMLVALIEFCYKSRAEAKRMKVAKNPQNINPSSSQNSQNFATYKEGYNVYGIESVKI
mGFP-PICK1 KD-AA, sequence (Q62083 whole entry): as the sequence (Q62083 whole entry) above
mGFP-PICK1 BAR (domain or fragment), sequence (Q62083 whole entry, the tested form may be a part): as the sequence (Q62083 whole entry) above
mCherry-KIBRA WT, sequence (Q5SXA9 whole entry): as the sequence (Q5SXA9 whole entry) above
mGFP-KIBRA ΔWW, sequence (Q5SXA9 whole entry, stated change not applied): as the sequence (Q5SXA9 whole entry) above

Myc-GluA2 (from UniProt P19491 22-883) (receptor)
co-precipitated GluA2 relative to PICK1 WT (mCherry-KIBRA co-expressed) (mGFP-PICK1 5K-E (mouse)): 0.27 fold of WT

mCherry-KIBRA WT (from UniProt Q5SXA9 1-1104) (natural protein)
co-precipitated KIBRA relative to PICK1 WT (mGFP-PICK1 5K-E (mouse)): 0.63 fold of WT

mGFP-KIBRA ΔC2 (from UniProt Q5SXA9 1-1104) (natural protein)
co-precipitated mGFP-KIBRA relative to KIBRA WT (mGFP-KIBRA ΔC2 (mouse)): 1.36 fold of WT
co-precipitated KIBRA relative to KIBRA WT (mCherry-PICK1 WT (mouse)): 1.29 fold of WT

mGFP-KIBRA ΔCCL (from UniProt Q5SXA9 1-1104) (natural protein)
co-precipitated KIBRA relative to KIBRA WT (mCherry-PICK1 WT (mouse)): 1.48 fold of WT
co-precipitated mGFP-KIBRA relative to KIBRA WT (mGFP-KIBRA ΔCCL (mouse)): 1.6 fold of WT

mGFP-KIBRA ΔWW (from UniProt Q5SXA9 1-1104) (natural protein)
co-precipitated KIBRA relative to KIBRA WT (mCherry-PICK1 WT (mouse)): 1.79 fold of WT

mGFP-KIBRA ΔαBR (from UniProt Q5SXA9 1-1104) (natural protein)
co-precipitated mGFP-KIBRA relative to KIBRA WT (mGFP-KIBRA ΔαBR (mouse)): 1.55 fold of WT
co-precipitated KIBRA relative to KIBRA WT (mCherry-PICK1 WT (mouse)): 1.94 fold of WT

mGFP-PICK1 BAR (domain or fragment)
co-precipitated PICK1 relative to PICK1 WT (mCherry-KIBRA WT (mouse)): 1.62 fold of WT

mGFP-PICK1 KD-AA (from UniProt Q62083 1-416) (natural protein)
co-precipitated PICK1 relative to PICK1 WT (mCherry-KIBRA WT (mouse)): 0.81 fold of WT
